Laboratory results taken from patent US20090169546A1 (published 2009).

T1: recombinant HMG1 produced in E. coli as calmodulin binding protein (CBP) fusion (human)
T1 chain: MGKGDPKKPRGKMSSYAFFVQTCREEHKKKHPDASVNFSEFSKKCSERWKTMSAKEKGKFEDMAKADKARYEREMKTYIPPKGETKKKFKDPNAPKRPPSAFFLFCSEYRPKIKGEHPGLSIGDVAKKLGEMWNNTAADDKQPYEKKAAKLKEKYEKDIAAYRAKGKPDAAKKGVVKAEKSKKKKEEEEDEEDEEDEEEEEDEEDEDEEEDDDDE

B1: anti-HMG1 antibody G34 (antibody, V domains shown)
VH: EVQLLESGGGLVQPGGSLRLSCAASGFTFSHYMMGWVRQAPGKGLEWVSRISPSGGGTVYADSVKGRFTISRDNSKNTLYLQMNSLRAEDTAVYYCARGGNWNYISYYYYYLDVWGKGTTVTVSS
VL: DIQMTQSPSSLSASVGDRVAITCRASQSIDTYLNWYQQKPGKAPKLLIYAASKLEDGVPSRFSGSGTGTDFTLTIRSLQPEDFASYFCQQSYSSPGITFGPGTKVEIK
B2: anti-HMG1 antibody G12 (antibody, V domains shown)
VH: EVQLLESGGGLVQPGGSLRLSCAASGFTFSYYMMTWVRQAPGKGLEWVSSISPSGGYTIYADSAKGRFTISRDNSKNTLYLQMNSLRAEDTAVYYCARALSTGSFWDYWGQGTLVTVSS
VL: DIQMTQSPGTLSLSPGERATLSCRASESLTSTYVAWYQHKPGQAPRLLIHGGSTRATGIPVRFSGSGSGTDFTLTIATLEPEDFAVYYCQQYGSSPYTFGQGTKLEIK
B3: anti-HMG1 antibody S12 (antibody, V domains shown)
VH: EVQLLESGGGLVQPGGSLRLSCAASGFTFSKYIMHWVRQAPGKGLEWVSGIVPSGGLTEYADSVKGRFTISRDNSKNTLYLQMNSLRAEDTATYYCAKEIFGQFDYWGQGTLVTVSS
VL: AQSALTQPPSVSAAPRQRVTISCSGSTSNIGNNAVTWYQYFPGKAPKLLIYSDNQRPSGVPDRFSGSKSGTSASLAITGLQAEDEADYYCQSYDRGLSVVFGGGTKLTVL
B4: anti-HMG1 antibody E11 (antibody, V domains shown)
VH: EVQLLESGGGLVQPGGSLRLSCAASGFTFSRYQMNWVRQAPGKGLEWVSSISPSGGHTHYADSVKGRFTISRDNSKNTLYLQMNSLRAEDTAVYYCAKDGRQGKISTVDHWGQGTLVTVSS
VL: DIQMTQSPGTLSLSPGERATLSCRASQSVRSNFLAWYQQKPGQAPRLLIYGASRRASGIPDRFSGSGFGADFTLSISRLEPEDFAVYYCQQYGSSPNTFGQGSRVEIK
B5: anti-HMG1 antibody S14 (antibody, V domains shown)
VH: EVQLLESGGGLVQPGGSLRLSCAASGFTFSWYETGWVRQAPGKGLEWVSGISPSGGYTQYADSVKGRFTISRDNSKNTLYLQMNSLRAEDTAVYYCARSGVGATKIFDYWGQGTLVTVSS
VL: DIQMTQSPSSLSASVGDRVTIICRANERINTYLNWYQQKPGKAPKLLISGTSSLESGVPSRFSGSGSGTEFTLSISSLQPEDFASYYCQQSYSSPYTFGQGTNLEIR
B6: anti-HMG1 antibody G2 (antibody, V domains shown)
VH: EVQLLESGGGLVQPGGSLRLSCAASGFTFSWYKMQWVRQAPGKGLEWVSGISPSGGSTAYADSVKGRFTISRDNSKNTLYLQMNSLRAEDTAVYYCAKMGLFNTGNSYVDYWGQGTLVTVSS
VL: AQSELTQPPSVSEAPGQRVTISCSGSTSNIGNNAVIWYQQLPGKAPKLLIYYDDLLPSGVSDRFSGSKSGTSGSLAISGLQSEDEADYYCASWDDNLNGPLFGGGTKLTVL
B7: anti-HMG1 antibody G35 (antibody, V domains shown)
VH: EVQLLESGGGLVQPGGSLRLSCAASGFTFSWYKMVWVRQAPGKGLEWVSSIVPSGGITIYADSVKGRFTISRDNSKNTLYLQMNSLRAEDTAVYYCARVQQWLGRPYFDYWGQGTLVTVSS
VL: DIQMTQSPLSLPVTPGEPASISCRSSQSLLHGNGYNYLDWYLQRPGQSPQLLIYSGSNRASGVPDRFSGSGSGTDFTLKISRVEAEDVGVYYCMQSLQSRTFGQGTKVEIK
B8: anti-HMG1 antibody G20 (antibody, V domains shown)
VH: EVQLLESGGGLVQPGGSLRLSCAASGFTFSWYDMFWVRQAPGKGLEWVSWISPSGGYTKYADSVKGRFTISRDNSKNTLYLQMNSLRAEDTAMYYCARSGLDYYDSSGYLDAFDIWGQGTMVTVSS
VL: DIQMTQSPSSVSASVGDRVTITCRASQDVSIWLAWYQQKPGKAPKLLIFGASRLQSGVPSRFSGSRSGADFTLTIDSVQPEDFASYYCQQADSFPLTFGGGTKVEIK
B9: anti-HMG1 antibody G16 (antibody, V domains shown)
VH: EVQLLESGGGLVQPGGSLRLSCAASGFTFSWYKMTWVRQAPGKGLEWVSSISPSGGFTSYADSVKGRFTISRDNSKNTLYLQMNSLRAEDTAVYYCARDLDIRHAFDIWGQGTMVTVSS
VL: DIQMTQSPGTLSLSPGESGTLSCRASESVSSRHFAWYQQKPGQAPRLLIYGASSRPTGIPDRFSGSGSGTDFTLTLSRLEPEDFAVYFCQYYGSSPYTFGGGTKVEMK
B10: anti-HMG1 antibody S17 (antibody, V domains shown)
VH: EVQLLESGGGLVQPGGSLRLSCAASGFTFSYYDMHWVRQAPGKGLEWVSRISPSGGYTWYADSVKGRFTISRDNSKNTLYLQMNSLRAEDTAVYYCTRGRYTSGWHEYFDPWGQGTLVTVSS
VL: DIQMTQSPSSLSASVGDRVTITCRASQSIGTYLNWYQQKPGTAPKVLIYAASSLQSGVPSRFSGSGSGTDFTLTISSLQPEDFSTYYCQQSYNTPRTFGQGTKLEIK
B11: anti-HMG1 antibody G9 (antibody, V domains shown)
VH: EVQLLESGGGLVQPGGSLRLSCAASGFTFSSYDMFWVRQAPGKGLEWVSRISPSGGYTYYADSVKGRFTISRDNSKNTLYLQMNSLRAEDTAVYYCARLRYFDSRGYAFDIWGQGTMVTVSS
VL: DIQMTQSPGTLSLSPGERATLSCRASQSVRSSYLAWYQQKPGQAPRLLIYGASTRATGIPDRFSGSGSGTDFTLTISRLEPEDFAVYYCQQYGTSRWTFGQGTKVEIK

Target: T1, recombinant HMG1 produced in E. coli as …
Assay: cell-based or functional assay

Row | IC50, inhibition of rHMG1 stimulated IL-6 release from human PBMCs | IC50, inhibition of rHMG1 stimulated IL-1β release from human PBMCs | IC50, inhibition of rHMG1 stimulated IL-12 release from human PBMCs | IC50, inhibition of rHMG1 stimulated TNF-α release from human PBMCs | IC50, inhibition of HMG1 stimulated NO release from macrophages | Binder
1 | 0.858 nM |  |  |  |  | B1
2 | 1.12 nM | 5.91 µg/mL | 2.79 µg/mL | 0.796 µg/mL |  | B2
3 | 1.67 nM |  |  |  |  | B3
4 | 1.22 nM |  |  |  | 101 µg/mL | B4
5 | 0.191 nM | 0.0678 µg/mL |  | 0.0662 µg/mL |  | B5
6 | 0.994 nM | 5.03 µg/mL | 1.26 µg/mL | 1.35 µg/mL |  | B6
7 | 0.564 nM |  |  |  |  | B7
8 | 0.652 nM | 0.4 µg/mL |  | 0.598 µg/mL | 20.4 µg/mL | B8
9 | 1.06 nM |  |  |  | 22 µg/mL | B9
10 | 0.162 nM | 0.0809 µg/mL |  |  | 41.7 µg/mL | B10
11 | 0.246 nM | 0.211 µg/mL |  | 0.248 µg/mL |  | B11

Target: T1, recombinant HMG1 produced in E. coli as …
Assay: BIAcore 3000; mAb amine-coupled to CM5, HMG1 injected in two-fold dilutions; steady-state model
Description: HMG1 Binding Affinity via BIAcore Analysis: All experiments were performed on a BIAcore 3000 instrument (BIAcore, Inc., Piscataway, N.J.). Briefly, each mAb was immobilized to a CM5 sensor chip using a standard amine coupling chemistry. Separately a reference (control) flow cell was also prepared. Two-fold, serial dilutions of HMG1 in instrument buffer were sequentially injected at a slow flow rate over the individual mAb and reference flow-cell surfaces. Following the binding and dissociation of HMG1, the mAbs surfaces were regenerated with a brief pulse of 1M NaCl-50 mM NaOH. At the end of each experiment, the binding curves were evaluated using a steady-state model available through the BIAevaluation software supplied by BIAcore, Inc. (Piscataway, N.J.).

Row | Kd | Binder
12 | 67 nM | B1
13 | 73 nM | B2
14 | 205 nM | B5
15 | 242 nM | B7
16 | 22 nM | B9
17 | 125 nM | B11
